experiment: yeast display, Sf9 membrane polyspecificity reagent, FACS + sequencing; frameworks hold sequencing errors
Summary of the method: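 Sorting gates, low and high (top ~1%), were placed on anti-HA fluorescence to track expression and on streptavidin fluorescence to track reagent binding. A clone's polyreactivity label is taken from the gate it came out of. The reagent was 10% biotinylated, detergent-solubilized Sf9 membrane, applied for 1 hour at 4 °C to galactose-induced yeast display cells.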

Sequence | polyreactivity (PSR sort gate)
QVQLVESGGGLVQAGGSLRLSCAASGFIFVPNAMGWYRQAPGKERELVAAIRWSDGTTYYADSVKGRFTISRDNAKNTVYLQMNSLKPEDTAVYYCATDHDPRYDYWGQGTQVTVSS | high polyreactivity
QVQLVESGGGLVQAGGSLRLSCAASGFIFVPYAMGWYRQAPGKEREFVAAIRCSGGRTYYADSVKGRFSISRDYAKNTVYLQMNSLKPDDTAVYYCAADTWQDRVRKTSFGYDYWGQGTQVTVSS | high polyreactivity
QVQLVESGGGLVQAGGSLRLSCAASGFIFVPYAMGWYRQAPGKERELVARITWSGGRTYYADSVKGRFTISRDNAKNTVYLQMNSLKPEDTAVYYCNADVYGFDYWGQGTQVTVSS | high polyreactivity
QVQLVESGGGLVQAGGSLRLSCAASGFIFVRNAMGWYRQAPGKERELVAVITRGGSTYYADSVKGRFTISRDNAKNTVYLQMNSLKPEDTAVYYCDARYYRGTYGRTEGAMDYWGQGTQVTVSS | high polyreactivity
QVQLVESGGGLVQAGGSLRLSCAASGFIFVRYAMGWYRQAPGKERELVAAISWRGGSTYFADSVKGRFTISRDNAKNTVYLQMNSLKPEDTAVYYCAAVTWVHRYSRFNPFVAFDYWGQGTQVTVSS | high polyreactivity
QVQLVESGGGLVQAGGSLRLSCAASGFIFVRYAMGWYRQAPGKERELVAAITRSGTSTYYADSVKGRFTISRDNAKTTVNLQMNSLKPEDTAVYYCAKEVRSRYGYWGQGTQVTVSS | high polyreactivity
QVQLVESGGGLVQAGGSLRLSCAASGFIFVRYAMGWYRQAPGKERELVASITRSGGSTYYADSVKGRFTISRDNAKNTVYLQMNSLKPEDTAVYYCNAGLLRRRMDYWGQGTQVTVSS | high polyreactivity
QVQLVESGGGLVQAGGSLRLSCAASGFIFVRYAMGWYRQAPGTERELVASITRSGGSTYYADSVKGRFTISRDNAKNTVYLQLNSLKPEDSAVYYCAASYYRSRGSTYGYWGQGTQVTVSS | high polyreactivity
QVQLVESGGGLVQAGGSLRLSCAASGFIFVRYGMGWYRQAPGKERELVAAITWNGGSTFYADSVKGRFTISRDNAKNTVYLQMNSLKPEDTAVYYCAAGYKYSYRSIYTHVDYWGQGTQVTVSS | low polyreactivity
QVQLVESGGGLVQAGGSLRLSCAASGFIFVSNAMGWYRQAPGKERELVAAISKSGARTSYADSVKGRFTISRDNAKNTVYLQMNSLKPEDTAVYYCAASGSGVGIYYKRGNYWGQGTQVTVSS | high polyreactivity
QVQLVESGGGLVQAGGSLRLSCAASGFIFVTNAMGWYRQAPGKERELVAAINWSGGRTYYADSVKGRFTISRDNAKNTVYLQMNSLKPEDTAVYYCAADPYARLGEYGYWGQGTQVTVSS | low polyreactivity
QVQLVESGGGLVQAGGSLRLSCAASGFIFVTYAMGWYRHAPGKERELVAAITNSGGTTYYADSVKGRFTISRDNAKNTVYLQMNSLKPEDTAVYYCNKPYGAETAHREFDYWGQGTQVTVSS | low polyreactivity
QVQLVESGGGLVQAGGSLRLSCAASGFIFVVYAMGWYRQAPGKERELVAAITNGGITYYADSVKGRFTISRDNAKNTVYLQMHSLKPEDTADYYCNAQYTDYDGYVGYYYWGEGTQVTVSS | low polyreactivity
QVQLVESGGGLVQAGGSLRLSCAASGFIFVVYTMGGYRQEPGKVRELVAAITSGGSTYYADSVKGRFTISRDNAKNTVYLQMNSLKPEDTAVYYCNALASRYQAYYYWGQGTQVTVSS | low polyreactivity
QVQLVESGGGLVQAGGSLRLSCAASGFIFVWYAMGWYRQAPGKERELVAAISWSGGNTYYADSVKGRFTISRDNAKNTVYLQMNSLKPEDTAVYYCNVVYFDGNPEDYDYWGQGTQVTVSS | high polyreactivity
QVQLVESGGGLVQAGGSLRLSCAASGFIFVYNDMGWYRQAPGKERELVAAISTSGGSTYYADSVKGRFTISRDNAKNTVYLQMNSLKPEDTAVYYCAAGPSYYPFFWPDFEYWGQGTQVTVSS | high polyreactivity
QVQLVESGGGLVQAGGSLRLSCAASGFIFVYYAMGWYRQAPGKERELVAAISSRGGSTYYADSVKRRFTISRDNAKNTVYLQMNSLKPEDTAVYYCAARPSSRRYGTIMDYWGQGTQVTVSS | high polyreactivity

Reference: the nanobody polyreactivity screen of Harvey et al. (2022)
